Assay results: patent publication US20250026814A1 (UNIVERSITY OF CHICAGO, published 2025)

B1: S728-537 (antibody, V domains shown)
VH: QVQLVQSGAEVKKPGASVKVSCKTSGYTFTGFYLHWLRQAPGQGLEWMGRINPNTGDTDYAQKFQGRVTMTRDTSISTAYMELSRLRADDTAVYYCARTPGQTRQLFVGTNVLDVWGQGTMVTVSS
VL: DIQMTQSPSSVSASVGDRVTITCRASQGISSWLAWYQQKPGKAPKVLIFAASSLQSGVPSRFSGSGSGTDFTLTITSLQPEDFATYFCQQTNSFPPTFGGGTKVEIK
B2: S728-537 (antibody, V domains shown)
VH: B1 VH
VL: B1 VL
B3: S728-430 (antibody, V domains shown)
VH: EVQLVESGGGLIQPGGSLRLSCAASGFTVSSNYMSWVRQAPGKGLEWVSVIYSGGSTYYADSVKGRFTISRDNSKNTLYLQMNSLRAEDTAVYYCARTPRGSRRGAFDIWGQGTMVTVSS
VL: not shown
B4: S728-430 (antibody, V domains shown)
VH: B3 VH
VL: not shown
B5: S24-1384 (antibody, V domains shown)
VH: EVQLVESGGGLVQPGGSLRLSCAVSGFTFSSYSMNWVRQAPGKGLEWVSYISSSSSIIYYADSVKGRFTISRDNAKNSLYLQMNSLRAEDTAVYYCARDFLDYSRSYSYGMDVWGQGTTVTVSS
VL: SYVLTQPPSVSVAPGQTARITCGGDNIGSKNVHWYQQKPGQAPVLVVFDDSDRPSGIPERFSGSNSGNTATLTISRVEAGDEADYYCQVWDSSSDHYVVFGGGTKLTVL
B6: S728-1157 (antibody, V domains shown)
VH: EVQLVESGGGLVQPGGSLRLSCAASGLLVSRNYMNWVRQAPGKGLEWVSIIYSGGSTFYADSVEGRFTISRDESKNTLYLQMNSLRTDDTAVYYCARDLSDYGGIDCWGQGTLVTVSS
VL: YELTQPLSVSMALGQTARISCGGDNVGSQNVHWYQQRPGQAPVLVIYRDSNRPSGIPERFSGSKSGNTATLTISRAQAGDEADYYCQVWDSSTVAFGGGTKLTVL
B7: S728-1157 (antibody, V domains shown)
VH: B6 VH
VL: B6 VL
B8: S728-1690 (antibody, V domains shown)
VH: QVQLVQSGAEVVKPGSSVKVSCKASGGTFTRYAISWVRQAPGQGPEWMGRIIPMFGIANYAQRFQGRVTMTADKSTSTAYMELSSLRSEDTAVYYCATCQYYYDSSGYGSLDYWGQGTQVTVSS
VL: EIVLTQSPGTLSLSPGERVTLSCRASQSISSNFLAWYQQKPGQAPRLLISGASSRATGIPDRFSGGGSGTDFTLTISRLEPEDFAVYYCQQYHSSPRTFGQGTKVEIK
B9: S728-209 (antibody, V domains shown)
VH: QITLKESGPTLVKPTQTLTLTCTLSGFSLSTSGVSVGWIRQPPGKALEWLAVIFWDDDKRYNPSLKSRLTIAKDTSKSQVVLTMTNLDPVDTGTYYCVSGSSYYYYYYMDVWGKGTTVTVSS
VL: DIQMTQSPSSVSASIGDRVTITCRASQDISTWLAWYQQKPGRAPNLLIYGASSLQSGVPSRFSGSGSGTDFTLTISSLQPEDFATYYCQQATSFPLTFGGGTKVEIK
B10: S728-1261 (antibody, V domains shown)
VH: QVQLQESGPGLVKPSGTLSLTCAVSGGSISNNNWWIWVRQPPGKGLEWIGEIHHSGSTDYNPSLKSRVTISIDKSKNQFSLRLSSVTAADTAVYYCARKPEPYYYYYYMDVWGKGTTVTVSS
VL: ETVLTQSPGTLSLSPGERATLSCRASQSVSSSYITWYQQKPGQAPRLLIYGASSRATGIPDRFSGSGSGTDFTLTISRLEPEDFAVYYCQQYRSPWGLTFGPGTKVDIK
B11: S144-466 (antibody, V domains shown)
VH: EVQLVQSGAEVKKPGESLKISCKGSGYRFTRYWIGWVRQMPGKGLEWMGIIYLGDSETRYSPSFQGQVTISADNSISTAYLQWSSLKASDTAMYYCARSSNWNYGDYWGQGTLVTVSS
VL: DIQMTQSPSTLSASVGDRVTITCRASQSITSWLAWYQQKSGKAPKLLIYDASSLESGVPSRFSGSGSGTEFTLTISSLQPDDFATYYCQQYNSYPWTFGQGTKVEIK
B12: S144-509 (antibody, V domains shown)
VH: EVQLVQSGAEVKKPGESLKISCKGSAYTFTTYWIGWVRQMPGKGLEWMGIIYPGDSDTRYSPSFQGQVTISADKSISTAYLQWSSLKASDTAMYYCARLLLVAGPFDYWGQGTLVTVSS
VL: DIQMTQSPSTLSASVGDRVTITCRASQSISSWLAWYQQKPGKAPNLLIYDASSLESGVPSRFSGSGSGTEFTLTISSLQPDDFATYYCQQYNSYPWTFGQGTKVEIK
B13: S728-1981 (antibody, V domains shown)
VH: QVQLVQSGAEVKKPGASVKVSCKTSGYTFTNYFMHWVRQAPGQGLEWMGIINPSGGSASYAQKFQGRITMTSDTSTSTVYMELSSLRSEDTAVYYCAREDIIVVVPARPLDYWGHGTLVTVSS
VL: EIVLTQSPATLSLSPGERATLSCRASQSFSNYLAWYQQKPGQAPRLLIYDASNRATGIPARFSGSGSGTDFTLTISSLEPEDFAVYYCQQRSNWPPLLTFGGGTKVEIK
B14: S728-2036 (antibody, V domains shown)
VH: QVHLVQSGAEIRKPGASVMVSCKASGYTFTDYYIHWVRQAPGQGLEWMGWINPNSGGTNYAQKFQGRVTMTRDTSIRTAYMELSRLRSDDAAVYYCAREGISMLRGVRSWFDPWGQGTLVTVSS
VL: QSALTQPASVSGSPGQSITISCTGTSSDVGSYNLVSWYQQHPGKVPKLIIYEVTKRPSGVSNRFSGSKSGNTASLTISGLQTEDEADYYCCSYAGFSAWVFGGGTKLTVL
B15: S144-69 (antibody, V domains shown)
VH: EVQLVQSGAEVKKPGESLKISCKGSGYSFTSYWIGWVRQMPGKGLEWMGIIYPGDSDTRYSPSFQGQVTISADKSITTAYLQWSSLKASDTAMYYCARTQTTNWFDSWGQGTLVTVSS
VL: DIQMTQSPSTLSVSVGDRVTITCRASQSVSSWLAWYQQKPGKAPKLLIYDASSLESGVPSRFSGSGSGTEFTLTISSLQPDDFATYYCQQYNSFYTFGQGTKLEIK
B16: S728-369 (antibody, V domains shown)
VH: QVQLQESGPGLVKPSQTLSLTCSVSGGSISSGGYYWSWIRQHPGKGLEWIGYMYYSGSTYYNPSLKSRVTIFVDTSKNHFSLKLTSVTAADTAVYYCARDSYENYYGSGSLEPNYHHYNMDVWGQGTTVTVSS
VL: DVQMTQSPSTLSASIGDRVTITCRASQSISGWLAWYQQRPGKAPKLLIYRASSLDFGVPSRFSGNGSGTEFTLTISSLQPDDFATYYCQQYHTYRTFGQGTKVEVK
B17: S564-152 (antibody, V domains shown)
VH: QVQLVESGGGVVQPGRSLRLSCAASGFTFSYYGMHWVRQAPGKGLEWVAVIWYDGSNKHYADSVKGRFTISRDNSKNTLYLQMNSLRAEDTAVYYCAKNAAPYCSGGSCYGTYFDYWGQGTLVTVSS
VL: DIQMTQSPSSLSASVGDRVTITCQASQDINNYLNWYQQKPGKAPKLLIYDASNLETGVPSRFSGSGSGTDFTFTISSLQPEDIATYYCQQYDNVPPHTFGQGTKLEIK

How the values were obtained:
[1] = molecular target: T1, SARS-CoV-2 spike receptor-binding domain (RBD), WT (SARS-CoV-2, UniProt P0DTC2 319-541); experiment: epitope specificity column of the table of RBD-reactive mAbs (ELISA)
T1 construct: domain: RBD

SARS-CoV-1 RBD WT = SARS-CoV-1 RBD WT (SARS-CoV-1, UniProt P59594 306-527); experiment: ELISA
MERS-CoV RBD WT = molecular target: T2, MERS-CoV RBD WT (MERS-CoV, UniProt K9N5Q8 367-606); experiment: ELISA
T2 sequence: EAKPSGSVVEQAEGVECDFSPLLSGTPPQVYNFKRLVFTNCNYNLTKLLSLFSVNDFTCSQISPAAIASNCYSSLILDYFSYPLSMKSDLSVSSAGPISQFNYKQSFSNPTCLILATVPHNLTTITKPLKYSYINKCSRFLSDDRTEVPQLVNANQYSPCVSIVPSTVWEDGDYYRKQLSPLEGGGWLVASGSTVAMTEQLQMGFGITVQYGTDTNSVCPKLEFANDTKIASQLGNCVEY

[2] = molecular target: T3, S1 monomeric WT (SinoBiological) (SARS-CoV-2, UniProt P0DTC2 16-685); experiment: ELISA
T3 construct: domain: S1

Binder | binding result [1] | binding result (SARS-CoV-1 RBD WT) | other results
B1 | binds |  | 
B2 |  | no binding (tested: 10 ug/ml top of dilution series) | binding result (MERS-CoV RBD WT): no binding (tested: 10 ug/ml top of dilution series)
B3 | binds |  | 
B4 |  | no binding (tested: 10 ug/ml top of dilution series) | binding result (MERS-CoV RBD WT): no binding (tested: 10 ug/ml top of dilution series)
B5 |  | binds | 
B6 | binds |  | 
B7 |  | no binding | 
B8 |  | no binding (tested: 10 ug/ml top of dilution series) | binding result (MERS-CoV RBD WT): no binding (tested: 10 ug/ml top of dilution series)
B9 | binds |  | 
B10 | binds |  | 
B11 |  | binds | 
B12 |  | binds | 
B13 |  |  | binding result [2]: binds
B14 |  |  | binding result [2]: binds
B15 |  | binds | 
B16 | binds |  | 
B17 |  | binds | 
